Experiment [1] concerns the target T1, rFzd-2 (frizzled-2 receptor) (rat, UniProt Q08464 29-570). Description: cell-based or functional assay.
Experiment [2] addresses T2, rFzd-1 (frizzled-1 receptor) (rat, UniProt Q08463 69-641). Nature of the experiment: cell-based or functional assay.
The target of experiment [3] is T1, rFzd-2 (frizzled-2 receptor). Description: cell-based or functional assay. The source holds these as a separate data set.
For experiment [4], the target named is T2, rFzd-1 (frizzled-1 receptor). Nature of the experiment: cell-based or functional assay. This is another data set of the same source.
For experiment [5], the target named is T3, mouse Fzd-2 (mouse, UniProt Q9JIP6 29-570).
T3 construct: whole, on cells; also called frizzled-2 (mouse)
T3 sequence (Q9JIP6 29-570): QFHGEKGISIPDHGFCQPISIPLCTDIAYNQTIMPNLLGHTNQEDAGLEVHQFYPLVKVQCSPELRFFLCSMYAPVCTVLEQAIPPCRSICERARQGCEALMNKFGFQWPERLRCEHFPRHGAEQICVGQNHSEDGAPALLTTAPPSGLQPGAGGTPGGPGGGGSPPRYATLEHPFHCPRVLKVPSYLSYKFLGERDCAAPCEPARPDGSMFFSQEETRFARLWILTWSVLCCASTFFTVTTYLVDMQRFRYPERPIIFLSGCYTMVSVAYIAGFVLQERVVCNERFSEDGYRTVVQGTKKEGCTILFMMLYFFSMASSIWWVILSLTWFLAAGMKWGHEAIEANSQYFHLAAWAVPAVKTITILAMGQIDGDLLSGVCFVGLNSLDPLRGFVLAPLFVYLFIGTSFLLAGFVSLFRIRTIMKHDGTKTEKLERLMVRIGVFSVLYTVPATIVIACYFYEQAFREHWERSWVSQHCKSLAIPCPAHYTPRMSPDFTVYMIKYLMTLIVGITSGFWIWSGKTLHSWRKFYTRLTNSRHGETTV
Nature of the experiment: competition: UM207 (1.10^-7 M) pre-incubated on mouse tissue sections, competitor UM206-rhodamine. As to the method: (§1) Specificity of the binding site was confirmed by prior incubation of the tissue sections with UM207 (1.10⁻⁷ M) or recombinant Wnt3a (1.10⁻⁸ M). Both compounds completely abolished the binding of UM206-rhodamine to its receptors.

Experiment [6] concerns the target T4, mouse Fzd-1 (mouse, UniProt O70421 69-642).
T4 construct: whole, on cells; also called frizzled-1 (mouse)
Described as above. As to the method:
as §1

No end group written: not given here. alkyl = not defined here

T1 sequence (Q08464 29-570): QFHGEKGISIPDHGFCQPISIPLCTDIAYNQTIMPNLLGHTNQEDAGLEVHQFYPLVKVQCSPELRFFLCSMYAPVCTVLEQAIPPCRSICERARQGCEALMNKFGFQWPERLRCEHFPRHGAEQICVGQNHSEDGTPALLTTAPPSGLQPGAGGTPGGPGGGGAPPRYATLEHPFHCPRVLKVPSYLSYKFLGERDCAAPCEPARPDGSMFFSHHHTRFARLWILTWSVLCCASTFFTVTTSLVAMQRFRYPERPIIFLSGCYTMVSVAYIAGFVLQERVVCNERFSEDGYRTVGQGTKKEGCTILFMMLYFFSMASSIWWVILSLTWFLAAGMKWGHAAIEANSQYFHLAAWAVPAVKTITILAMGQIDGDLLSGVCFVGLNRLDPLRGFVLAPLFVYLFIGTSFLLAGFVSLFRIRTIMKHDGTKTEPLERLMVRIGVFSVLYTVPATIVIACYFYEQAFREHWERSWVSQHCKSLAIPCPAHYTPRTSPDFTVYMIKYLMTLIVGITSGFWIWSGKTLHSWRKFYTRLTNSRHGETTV
T2 sequence (Q08463 69-641): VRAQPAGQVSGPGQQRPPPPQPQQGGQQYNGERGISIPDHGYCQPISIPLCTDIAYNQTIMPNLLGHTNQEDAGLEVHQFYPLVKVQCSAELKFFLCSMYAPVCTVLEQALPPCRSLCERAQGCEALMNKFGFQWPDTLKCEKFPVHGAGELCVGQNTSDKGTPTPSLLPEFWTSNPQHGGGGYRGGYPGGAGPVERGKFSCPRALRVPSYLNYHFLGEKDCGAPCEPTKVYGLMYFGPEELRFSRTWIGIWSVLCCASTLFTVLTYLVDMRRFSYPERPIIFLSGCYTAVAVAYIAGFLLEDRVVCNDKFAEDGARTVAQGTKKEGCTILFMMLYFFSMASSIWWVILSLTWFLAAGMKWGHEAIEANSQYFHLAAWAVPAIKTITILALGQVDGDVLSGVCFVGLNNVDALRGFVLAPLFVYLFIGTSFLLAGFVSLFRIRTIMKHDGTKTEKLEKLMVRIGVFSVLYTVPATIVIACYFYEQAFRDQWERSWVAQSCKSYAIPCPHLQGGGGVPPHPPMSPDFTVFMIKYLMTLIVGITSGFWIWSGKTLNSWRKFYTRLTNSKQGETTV
T4 sequence (O70421 69-642): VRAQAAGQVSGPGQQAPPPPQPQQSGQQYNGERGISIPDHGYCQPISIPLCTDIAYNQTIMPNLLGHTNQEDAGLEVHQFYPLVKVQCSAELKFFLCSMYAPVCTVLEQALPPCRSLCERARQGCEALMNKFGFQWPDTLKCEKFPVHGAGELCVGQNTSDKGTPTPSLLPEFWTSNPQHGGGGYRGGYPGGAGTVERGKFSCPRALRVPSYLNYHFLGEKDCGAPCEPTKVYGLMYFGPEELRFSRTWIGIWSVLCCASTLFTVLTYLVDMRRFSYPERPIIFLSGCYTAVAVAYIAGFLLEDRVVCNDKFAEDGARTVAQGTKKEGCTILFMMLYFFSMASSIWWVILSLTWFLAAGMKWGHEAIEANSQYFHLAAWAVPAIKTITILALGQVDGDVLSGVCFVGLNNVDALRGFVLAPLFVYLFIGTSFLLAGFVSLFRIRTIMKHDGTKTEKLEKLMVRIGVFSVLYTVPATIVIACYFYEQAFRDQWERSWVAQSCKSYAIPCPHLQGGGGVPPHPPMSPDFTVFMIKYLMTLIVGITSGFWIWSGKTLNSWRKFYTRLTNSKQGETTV

B1: UM206 (11 C = A) (peptide)
peptide: CNKTSEGMDGAEL
Turning to B1, the “% of inhibition of Wnt3a-induced luciferase activity (peptide at 1.10^-9 M)” value (shortened to “% of inhibition … (peptide at 1.10^-9 M)”) was 84.9% in experiment [1] and 67.2% in experiment [2].

B2: UM206 (4 T = A, 7 G = A, 9 D = A) (peptide)
peptide: CNKASEAMAGCEL
Take B2: the “% of inhibition … (peptide at 1.10^-9 M)” value in experiment [1] amounted to 17.5%; in experiment [2], 11.2%.

B3: UM206 (2 N = A) (peptide)
peptide: CAKTSEGMDGCEL
Take B3: the “% of inhibition … (peptide at 1.10^-9 M)” value in experiment [1] is 79.5%; in experiment [2] it was 68%.

B4: UM206 (12 E = A) (peptide)
peptide: CNKTSEGMDGCAL
For the molecule B4, the “% of inhibition … (peptide at 1.10^-9 M)” value came to 85.5% in experiment [1] and 65.9% in experiment [2].

B5: Peptide UM206 (linear), Ac-Cys-Asn-Lys-Thr-Ser-Glu-Gly-Met-Asp-Gly-Cys-Glu-Leu-NH2 (peptide)
peptide: Ac-CNKTSEGMDGCEL-NH2
modifications: cysteine pairing not given here
B5: the “% of inhibition … (peptide at 1.10^-9 M)” value was 75.1% in experiment [1] and 72.2% in experiment [2]. The “IC50, inhibition of Wnt3a (10^-9 M)-induced luciferase, HEK293-superTOPflash, two-binding-state fit” value in experiment [3] came to 0.0169 nM; in experiment [4] it was 2.1 nM. The “affinity ratio against rFzd-1, from reporter IC50 values” in experiment [3] was roughly 100 fold.

B6: UM206 (3 K = A) (peptide)
peptide: CNATSEGMDGCEL
Consider B6, for which the entries for the “% of inhibition … (peptide at 1.10^-9 M)” value in experiment [1] and in experiment [2] were 84.9% and 70.8%, respectively.

B7: UM206 (6 E = A) (peptide)
peptide: CNKTSAGMDGCEL
For the molecule B7, the “% of inhibition … (peptide at 1.10^-9 M)” value in experiment [1] came to 84.7%; in experiment [2], 70.8%.

B8: Peptide UM207 (linear), Ac-Gly-Ile-Lys-Glu-Cys-Gln-Tyr-Gln-Phe-Arg-His-Arg-Arg-Trp-Asn-Cys-Ser-Thr-Val-Asp-NH2 (peptide)
peptide: Ac-GIKECQYQFRHRRWNCSTVD-NH2
modifications: cysteine pairing not given here
With B8, the binding result in experiment [5] and in experiment [6] was “binds” throughout. For the same molecule, the “IC50, inhibition of Wnt3a (10^-9 M)-induced luciferase, HEK293-superTOPflash, single binding site fit” value is 15.2 nM in experiment [3] and 40 nM in experiment [4].

B9: UM208 (peptide)
peptide: GSCSLKTCWLQLAD
For the molecule B9, the “IC50, inhibition of Wnt3a (10^-9 M)-induced luciferase, HEK293-superTOPflash, single binding site fit” value in experiment [3] amounted to 2110 nM; in experiment [4] it was 2060 nM.

B10: UM206 (C = C-alkyl) (peptide)
peptide: C(alkyl)NKTSEGMDGC(alkyl)EL
modifications: reading uncertain; also: alkyl group not given here
As for B10, the “% of inhibition … (peptide at 1.10^-9 M)” value in experiment [1] came to 12.4%; in experiment [2] it was 1%.

B11: UM206 (8 M = A) (peptide)
peptide: CNKTSEGADGCEL
With B11, the “% of inhibition … (peptide at 1.10^-9 M)” value in experiment [1] was determined as 85%; in experiment [2], 67.6%.

B12: UM206 (C = A) (peptide)
peptide: ANKTSEGMDGAEL
Turning to B12, the “% of inhibition … (peptide at 1.10^-9 M)” value in experiment [1] came out at 8.39%; in experiment [2] it was 0%.

B13: UM206 (13 L = A) (peptide)
peptide: CNKTSEGMDGCEA
On to B13, for which the “% of inhibition … (peptide at 1.10^-9 M)” value worked out at 86.5% in experiment [1] and 65.9% in experiment [2].

B14: UM206 (5 S = A) (peptide)
peptide: CNKTAEGMDGCEL
On to B14, for which the “% of inhibition … (peptide at 1.10^-9 M)” value in experiment [1] was 87.3%; in experiment [2] it was 74.3%.

B15: UM206 (12-13 EL = AA) (peptide)
peptide: CNKTSEGMDGCAA
On to B15, for which the entries for the “% of inhibition … (peptide at 1.10^-9 M)” value in experiment [1] and in experiment [2] were 74.3% and 66.8%, respectively.

B16: UM206 - (label cut short in Table 3; taken as UM206 with the C-terminal Glu-Leu deleted) (peptide)
peptide: CNKTSEGMDGC
For B16, the “% of inhibition … (peptide at 1.10^-9 M)” value turned out to be 61.2% in experiment [1] and 18% in experiment [2].

B17: UM206 (C = S) (peptide)
peptide: SNKTSEGMDGSEL
On to B17, for which the figures for the “% of inhibition … (peptide at 1.10^-9 M)” value in experiment [1] and in experiment [2] were 17% and 0%, respectively.

B18: UM206 (1 C = A) (peptide)
peptide: ANKTSEGMDGCEL
As for B18, the “% of inhibition … (peptide at 1.10^-9 M)” value was 82.6% in experiment [1] and 70.8% in experiment [2].

B19: UM206 (9 D = A) (peptide)
peptide: CNKTSEGMAGCEL
Regarding B19, the “% of inhibition … (peptide at 1.10^-9 M)” value worked out at 60.5% in experiment [1] and 40.5% in experiment [2].

B20: UM206 (4 T = A) (peptide)
peptide: CNKASEGMDGCEL
Regarding B20, the “% of inhibition … (peptide at 1.10^-9 M)” value worked out at 59.4% in experiment [1] and 28.1% in experiment [2].

B21: UM206 (10 G = A) (peptide)
peptide: CNKTSEGMDACEL
With B21, the entries for the “% of inhibition … (peptide at 1.10^-9 M)” value in experiment [1] and in experiment [2] were 83.3% and 69.9%, respectively.

B22: UM206 (7 G = A) (peptide)
peptide: CNKTSEAMDGCEL
On to B22, for which the “% of inhibition … (peptide at 1.10^-9 M)” value in experiment [1] turned out to be 63.1%; in experiment [2], 52.6%.

B23: peptide CNVSSHGIDGCDL (SEQ ID NO: 18), derived from the area of Wnt3a homologous to UM206 (peptide)
peptide: CNVSSHGIDGCDL
Consider B23, for which the “% of inhibition … (peptide at 1.10^-9 M)” value is 62.4% in experiment [1] and 45.3% in experiment [2].

(Values after patent US20150071856A1 (UNIVERSITEIT MAASTRICHT, published 2015).)
